Measured values: patent US20240383982A1 (Genmab, published 2024)

Columns and labels:
[1] = biological target: T1, rat (Rattus norvegicus) B7H4, full length, on HEK-293F cells (rat, UniProt Q501W4 25-257); assay: flow cytometry, HEK-293F cells transiently transfected with rat B7H4, PE anti-human IgG F(ab')2 [panel Rat B7H4]
T1 construct: Uniprot Q501W4; also called rat B7H4
T1 sequence: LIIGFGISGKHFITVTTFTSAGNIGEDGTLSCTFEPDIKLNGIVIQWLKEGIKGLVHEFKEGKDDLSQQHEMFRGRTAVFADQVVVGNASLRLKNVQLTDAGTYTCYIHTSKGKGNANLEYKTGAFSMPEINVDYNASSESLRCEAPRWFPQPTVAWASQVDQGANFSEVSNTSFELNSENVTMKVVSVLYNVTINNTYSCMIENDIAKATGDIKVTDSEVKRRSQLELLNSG
Experimental: (§1) Cells (3×10⁴ cells/well) were incubated in polystyrene 96-well round-bottom plates (Greiner bio-one, cat. no. 650180) with serial dilutions of antibodies (ranging from 0.000458 to 30 μg/mL in 4-fold dilution steps) in 100 μL PBS/0.1% BSA/0.02% azide (staining buffer) at 4° C. for 30 min. Experiments were performed in technical duplicate. After washing twice in staining buffer, cells were incubated in 50 μL secondary antibody at 4° C. for 30 min. As a secondary antibody, R-Phycoerythrin (PE)-conjugated goat-anti-human IgG F(ab′)₂ (1:500 in FACS buffer; Jackson ImmunoResearch Laboratories, Inc., West Grove, PA, cat. no. 109-116-098), was used. Cells were washed twice in staining buffer, re-suspended in 30 μL FACS buffer containing Topro-3 (1:10,000 dilution) and analyzed on an iQue Screener (Intellicyt Corporation, USA). Binding curves were analyzed using non-linear regression (sigmoidal dose-response with variable slope) using GraphPad Prism V7.02 software (GraphPad Software, San Diego, CA, USA).

[2] = biological target: T2, cynomolgus monkey (Macaca fascicularis) B7H4 transcript 1, full length, on HEK-293F cells (cynomolgus monkey, UniProt Q7Z7D3 25-282 (human entry)); assay: flow cytometry, HEK-293F cells transiently transfected with cynomolgus monkey B7H4, PE anti-human IgG F(ab')2 [panel Cynomolgus monkey B7H4]
T2 construct: Uniprot A0A2K5U6P5; also called cynomolgus monkey B7H4; cynomolgus B7H4
T2 chain: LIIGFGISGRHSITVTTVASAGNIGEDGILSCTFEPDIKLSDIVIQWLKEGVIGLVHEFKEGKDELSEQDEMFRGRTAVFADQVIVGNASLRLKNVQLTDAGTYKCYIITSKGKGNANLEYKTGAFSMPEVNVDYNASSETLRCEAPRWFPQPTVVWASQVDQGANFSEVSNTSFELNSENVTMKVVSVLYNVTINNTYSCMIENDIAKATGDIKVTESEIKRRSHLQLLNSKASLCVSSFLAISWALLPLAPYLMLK
Experimental: as §1

[3] = biological target: T3, dog (Canis familiaris) B7H4, full length, on HEK-293F cells (dog, UniProt Q7Z7D3 25-282 (human entry)); assay: flow cytometry, HEK-293F cells transiently transfected with dog B7H4, PE anti-human IgG F(ab')2 [panel Dog B7H4]
T3 construct: Uniprot F1P8R9; also called dog B7H4
T3 chain: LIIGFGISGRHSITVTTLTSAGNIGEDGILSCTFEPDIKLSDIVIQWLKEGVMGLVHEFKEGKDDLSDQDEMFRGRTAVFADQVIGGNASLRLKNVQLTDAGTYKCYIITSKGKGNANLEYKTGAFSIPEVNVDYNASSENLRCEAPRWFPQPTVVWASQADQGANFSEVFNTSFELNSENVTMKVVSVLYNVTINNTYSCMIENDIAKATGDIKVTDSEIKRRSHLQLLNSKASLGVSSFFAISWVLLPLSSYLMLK
Experimental: as §1

[4] = biological target: T4, mouse (Mus musculus) B7H4, full length, on HEK-293F cells (mouse, UniProt Q7TSP5 25-257); assay: flow cytometry, HEK-293F cells transiently transfected with mouse B7H4, PE anti-human IgG F(ab')2 [panel Mouse B7H4]
T4 construct: Uniprot Q7TSP5; also called mouse B7H4
T4 sequence: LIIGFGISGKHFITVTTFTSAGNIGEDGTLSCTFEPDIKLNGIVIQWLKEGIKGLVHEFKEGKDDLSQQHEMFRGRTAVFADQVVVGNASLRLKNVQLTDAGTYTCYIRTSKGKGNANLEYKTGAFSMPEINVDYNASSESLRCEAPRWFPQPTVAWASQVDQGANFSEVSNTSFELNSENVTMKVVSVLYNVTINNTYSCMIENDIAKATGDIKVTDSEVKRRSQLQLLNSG
Experimental: as §1

[5] = biological target: T5, human B7H4, full length, on cells (human, UniProt Q7Z7D3 25-282); assay: flow cytometry, HEK-293F cells transiently transfected with human B7H4, PE anti-human IgG F(ab')2 [panel Human B7H4]
T5 construct: Uniprot Q7Z7D3; Used for transfected HEK cells and for the B7H4-expressing human tumor cell lines (endogenous B7H4); also called VTCN1
T5 sequence: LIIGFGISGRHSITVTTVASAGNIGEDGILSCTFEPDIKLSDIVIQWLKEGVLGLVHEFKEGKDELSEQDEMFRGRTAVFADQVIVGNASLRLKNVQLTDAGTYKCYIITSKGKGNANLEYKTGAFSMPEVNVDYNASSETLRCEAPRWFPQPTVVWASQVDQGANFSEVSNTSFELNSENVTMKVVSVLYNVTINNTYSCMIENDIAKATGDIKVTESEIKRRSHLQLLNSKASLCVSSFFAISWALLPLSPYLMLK
Experimental: as §1

[6] = biological target: T6, rabbit (Oryctolagus cuniculus) B7H4, full length, on HEK-293F cells (rabbit, UniProt Q7Z7D3 25-282 (human entry)); assay: flow cytometry, HEK-293F cells transiently transfected with rabbit B7H4, PE anti-human IgG F(ab')2 [panel Rabbit B7H4]
T6 construct: Uniprot G1TQE8; also called rabbit B7H4
T6 chain: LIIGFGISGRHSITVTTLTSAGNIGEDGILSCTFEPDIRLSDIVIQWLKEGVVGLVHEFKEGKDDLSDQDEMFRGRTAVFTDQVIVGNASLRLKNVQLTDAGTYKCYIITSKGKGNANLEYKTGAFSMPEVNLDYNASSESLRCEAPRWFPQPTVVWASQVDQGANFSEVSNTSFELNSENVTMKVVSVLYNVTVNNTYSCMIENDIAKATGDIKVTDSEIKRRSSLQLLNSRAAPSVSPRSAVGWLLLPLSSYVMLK
Experimental: as §1

[7] = biological target: T2, cynomolgus monkey (Macaca fascicularis) …; assay: flow cytometry, HEK-293F cells transfected with cynomolgus monkey B7H4 [panel Cynomolgus monkey B7H4]
Experimental: as §1

B1: bsIgG1-huCD3-H101G-FEALxB7H4-C1-N52S-FEAR (bispecific antibody)
heavy 1: not shown
light 1: not shown
heavy 2: QVQLQQWGAGLLKPSETLSLTCAVYGGSFSGYYWSWIRQPPGKGLEWIGEISHSGSTNYNPSLKSRVTISIDTSKNQFSLKLTSVTAADTAVFYCARGLFNWNFDSWGQGTLVTVSSASTKGPSVFPLAPSSKSTSGGTAALGCLVKDYFPEPVTVSWNSGALTSGVHTFPAVLQSSGLYSLSSVVTVPSSSLGTQTYICNVNHKPSNTKVDKRVEPKSCDKTHTCPPCPAPEFEGGPSVFLFPPKPKDTLMISRTPEVTCVVVAVSHEDPEVKFNWYVDGVEVHNAKTKPREEQYNSTYRVVSVLTVLHQDWLNGKEYKCKVSNKALPAPIEKTISKAKGQPREPQVYTLPPSREEMTKNQVSLTCLVKGFYPSDIAVEWESNGQPENNYKTTPPVLDSDGSFFLYSRLTVDKSRWQQGNVFSCSVMHEALHNHYTQKSLSLSPGK
light 2: DIQMTQSPSSLSASVGDRVTITCRASQGIRNDLGWYQQKPGKAPKRLIYGASSLQSGVPSRFSGSGSGTEFTLTISSLQPEDFATYYCLQHNSYPRTFGQGTTVEIKRTVAAPSVFIFPPSDEQLKSGTASVVCLLNNFYPREAKVQWKVDNALQSGNSQESVTEQDSKDSTYSLSSTLTLSKADYEKHKVYACEVTHQGLSSPVTKSFNRGEC
notes: also called bslgG1-huCD3-H101G-FEALxB7H4-C1-N52S-FEAR; BslgG1-huCD3-H101G-FEALxB7H4-C1-N52S-FEAR
In the case of B1, the binding result [1] is reported as “binds”, the “EC50 (read off the curve)” value [2] is reported as about 0.6 µg/mL and the binding result [3] is reported as “binds”. For the same binder, the binding result [4] was “binds”, the “EC50 (read off the curve)” value [5] was about 0.9 µg/mL and the binding result [6] was “binds”.

B2: IgG1-B7H4-C5-FEAR (antibody, V domains shown)
VH: QLQLQESGPGLVKPSETLSLTCTVSGGSIKSGSYYWGWIRQPPGKGLEWIGNIYYSGSTYYNPSLRSRVTISVDTSKNQFSLKLSSVTAADTAVYYCAREGSYPNQFDPWGQGTLVTVSS
VL: EIVMTQSPATLSVSPGERATLSCRASQSVSSNLAWYQQKPGQAPRLLIYGASTRATGIPARFSGSGSGTEFTLTISSLQSEDFAVYYCQQYHSFPFTFGGGTKVEIKR
notes: Full length IgG1 FEAR, kappa; variable domains from US20190085080A1
B2: binds [7].

B3: IgG1-B7H4-C1-N52S-FEAR (antibody, V domains shown)
VH: QVQLQQWGAGLLKPSETLSLTCAVYGGSFSGYYWSWIRQPPGKGLEWIGEISHSGSTNYNPSLKSRVTISIDTSKNQFSLKLTSVTAADTAVFYCARGLFNWNFDSWGQGTLVTVSS
VL: DIQMTQSPSSLSASVGDRVTITCRASQGIRNDLGWYQQKPGKAPKRLIYGASSLQSGVPSRFSGSGSGTEFTLTISSLQPEDFATYYCLQHNSYPRTFGQGTTVEIKR
notes: Full length human IgG1 with L234F, L235E, D265A, K409R (FEAR) heavy chain constant region and kappa light chain; bivalent, monospecific; also called IgG1-B7H4-C1-052S-FEAR
In the case of B3, the “EC50 (read off the curve)” value [1] is reported as about 0.3 µg/mL, the “EC50 (read off the curve)” value [2] is reported as about 0.2 µg/mL and the “EC50 (read off the curve)” value [3] is reported as about 0.3 µg/mL. The “EC50 (read off the curve)” value [4] was about 0.3 µg/mL, the “EC50 (read off the curve)” value [7] was about 0.1 µg/mL and the “EC50 (read off the curve)” value [5] was about 0.3 µg/mL. For the same binder, the “EC50 (read off the curve)” value [6] was about 0.3 µg/mL.
